# B1: Caspase recruitment domain-containing protein 9 (Homo sapiens), Q9H257 (parent)
# chain: MSDYENDDECWSVLEGFRVTLTSVIDPSRITPYLRQCKVLNPDDEEQVLSDPNLVIRKRKVGVLLDILQRTGHKGYVAFLESLELYYPQLYKKVTGKEPARVFSMIIDASGESGLTQLLMTEVMKLQKKVQDLTALLSSKDDFIKELRVKDSLLRKHQERVQRLKEECEAGSRELKRCKEENYDLAMRLAHQSEEKGAALMRNRDLQLEIDQLKHSLMKAEDDCKVERKHTLKLRHAMEQRPSQELLWELQQEKALLQARVQELEASVQEGKLDRSSPYIQVLEEDWRQALRDHQEQANTIFSLRKDLRQGEARRLRCMEEKEMFELQCLALRKDSKMYKDRIEAILLQMEEVAIERDQAIATREELHAQHARGLQEKDALRKQVRELGEKADELQLQVFQCEAQLLAVEGRLRRQQLETLVLSSDLEDGSPRRSQELSLPQDLEDTQLSDKGCLAGGGSPKQPFAALHQEQVLRNPHDAGLSSGEPPEKERRRLKESFENYRRKRALRKMQKGWRQGEEDRENTTGSDNTDTEGS
# B2: Notch homolog 2 N-terminal-like protein A (Homo sapiens), Q7Z3S9 (parent)
# chain: MCVTYHNGTGYCKCPEGFLGEYCQHRDPCEKNRCQNGGTCVAQAMLGKATCRCASGFTGEDCQYSTSHPCFVSRPCLNGGTCHMLSRDTYECTCQVGFTGKECQWTDACLSHPCANGSTCTTVANQFSCKCLTGFTGQKCETDVNECDIPGHCQHGGTCLNLPGSYQCQCLQGFTGQYCDSLYVPCAPSPCVNGGTCRQTGDFTFECNCLPETVRRGTELWERDREVWNGKEHDEN
# partner: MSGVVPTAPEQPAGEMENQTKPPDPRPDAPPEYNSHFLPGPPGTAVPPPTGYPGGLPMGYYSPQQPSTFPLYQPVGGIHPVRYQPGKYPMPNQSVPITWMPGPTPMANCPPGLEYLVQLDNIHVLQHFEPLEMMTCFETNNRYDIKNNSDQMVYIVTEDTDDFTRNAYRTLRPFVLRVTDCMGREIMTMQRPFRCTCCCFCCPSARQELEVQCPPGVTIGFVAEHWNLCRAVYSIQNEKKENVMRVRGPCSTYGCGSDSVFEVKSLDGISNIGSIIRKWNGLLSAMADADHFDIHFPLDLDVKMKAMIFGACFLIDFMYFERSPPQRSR
# B3: Dickkopf-related protein 1 (Homo sapiens), O94907 (parent)
# chain: MMALGAAGATRVFVAMVAAALGGHPLLGVSATLNSVLNSNAIKNLPPPLGGAAGHPGSAVSAAPGILYPGGNKYQTIDNYQPYPCAEDEECGTDEYCASPTRGGDAGVQICLACRKRRKRCMRHAMCCPGNYCKNGICVSSDQNHFRGEIEETITESFGNDHSTLDGYSRRTTLSSKMYHTKGQEGSVCLRSSDCASGLCCARHFWSKICKPVLKEGQVCTKHRRKGSHGLEIFQRCYCGEGLSCRIQKDHHQASNSSRLHTCQRH
# B4: Zinc finger protein 774 (Homo sapiens), Q6NX45 (parent)
# chain: MWLGTSGKSGLPGHCLENPLQECHPAQLEEWALKGISRPSVISQPEQKEEPWVLPLQNFEARKIPRESHTDCEHQVAKLNQDNSETAEQCGTSSERTNKDLSHTLSWGGNWEQGLELEGQHGTLPGEGQLESFSQERDLNKLLDGYVGEKPMCAECGKSFNQSSYLIRHLRTHTGERPYTCIECGKGFKQSSDLVTHRRTHTGEKPYQCKGCEKKFSDSSTLIKHQRTHTGERPYECPECGKTFGRKPHLIMHQRTHTGEKPYACLECHKSFSRSSNFITHQRTHTGVKPYRCNDCGESFSQSSDLIKHQRTHTGERPFKCPECGKGFRDSSHFVAHMSTHSGERPFSCPDCHKSFSQSSHLVTHQRTHTGERPFKCENCGKGFADSSALIKHQRIHTGERPYKCGECGKSFNQSSHFITHQRIHLGDRPYRCPECGKTFNQRSHFLTHQRTHTGEKPFHCSKCNKSFRQKAHLLCHQNTHLI
# partner: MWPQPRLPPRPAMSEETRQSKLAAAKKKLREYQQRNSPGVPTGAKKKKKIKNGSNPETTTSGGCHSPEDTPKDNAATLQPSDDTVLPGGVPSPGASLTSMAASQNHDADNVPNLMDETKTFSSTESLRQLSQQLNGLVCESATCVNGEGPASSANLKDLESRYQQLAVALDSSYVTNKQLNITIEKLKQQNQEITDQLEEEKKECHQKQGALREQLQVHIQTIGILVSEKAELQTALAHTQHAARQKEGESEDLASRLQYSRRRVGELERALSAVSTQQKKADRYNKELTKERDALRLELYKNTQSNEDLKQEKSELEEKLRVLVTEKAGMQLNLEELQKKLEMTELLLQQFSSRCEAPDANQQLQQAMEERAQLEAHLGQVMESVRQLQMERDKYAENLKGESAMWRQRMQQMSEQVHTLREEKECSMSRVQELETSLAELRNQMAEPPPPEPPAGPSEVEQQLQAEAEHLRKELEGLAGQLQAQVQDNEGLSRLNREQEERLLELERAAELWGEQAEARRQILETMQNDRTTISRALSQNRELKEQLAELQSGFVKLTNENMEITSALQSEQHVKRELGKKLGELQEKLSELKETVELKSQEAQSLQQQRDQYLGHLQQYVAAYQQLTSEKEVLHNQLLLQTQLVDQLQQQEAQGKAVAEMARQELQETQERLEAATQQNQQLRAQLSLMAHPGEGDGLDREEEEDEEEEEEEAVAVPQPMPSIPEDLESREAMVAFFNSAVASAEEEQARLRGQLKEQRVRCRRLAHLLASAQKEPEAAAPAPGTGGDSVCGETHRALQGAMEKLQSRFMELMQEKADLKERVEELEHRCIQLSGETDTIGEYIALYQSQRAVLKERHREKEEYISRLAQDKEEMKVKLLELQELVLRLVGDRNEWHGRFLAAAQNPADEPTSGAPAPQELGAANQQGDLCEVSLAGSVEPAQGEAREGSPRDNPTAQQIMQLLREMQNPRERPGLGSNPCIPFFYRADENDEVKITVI
# B5: Transmembrane protein 79 (Homo sapiens), Q9BSE2 (parent)
# chain: MTEQETLALLEVKRSDSPEKSSPQALVPNGRQPEGEGGAESPGAESLRVGSSAGSPTAIEGAEDGLDSTVSEAATLPWGTGPQPSAPFPDPPGWRDIEPEPPESEPLTKLEELPEDDANLLPEKAARAFVPIDLQCIERQPQEDLIVRCEAGEGECRTFMPPRVTHPDPTERKWAEAVVRPPGCSCGGCGSCGDREWLRAVASVGAALILFPCLLYGAYAFLPFDVPRLPTMSSRLIYTLRCGVFATFPIVLGILVYGLSLLCFSALRPFGEPRREVEIHRRYVAQSVQLFILYFFNLAVLSTYLPQDTLKLLPLLTGLFAVSRLIYWLTFAVGRSFRGFGYGLTFLPLLSMLMWNLYYMFVVEPERMLTATESRLDYPDHARSASDYRPRPWG
# partner: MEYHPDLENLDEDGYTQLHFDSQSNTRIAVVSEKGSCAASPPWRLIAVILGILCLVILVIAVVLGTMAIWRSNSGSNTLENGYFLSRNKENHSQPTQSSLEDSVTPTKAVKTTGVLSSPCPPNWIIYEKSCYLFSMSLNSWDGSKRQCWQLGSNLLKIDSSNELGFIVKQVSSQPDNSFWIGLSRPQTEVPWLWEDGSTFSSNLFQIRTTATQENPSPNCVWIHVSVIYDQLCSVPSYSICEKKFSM
# B6: Nebulette (Homo sapiens), O76041 (parent)
# chain: MRVPVFEDIKDETEEEKIGEEENEEDQVFYKPVIEDLSMELARKCTELISDIRYKEEFKKSKDKCTFVTDSPMLNHVKNIGAFISEAKYKGTIKADLSNSLYKRMPATIDSVFAGEVTQLQSEVAYKQKHDAAKGFSDYAHMKEPPEVKHAMEVNKHQSNISYRKDVQDTHTYSAELDRPDIKMATQISKIISNAEYKKGQGIMNKEPAVIGRPDFEHAVEASKLSSQIKYKEKFDNEMKDKKHHYNPLESASFRQNQLAATLASNVKYKKDIQNMHDPVSDLPNLLFLDHVLKASKMLSGREYKKLFEENKGMYHFDADAVEHLHHKGNAVLQSQVKYKEEYEKNKGKPMLEFVETPSYQASKEAQKMQSEKVYKEDFEKEIKGRSSLDLDKTPEFLHVKYITNLLREKEYKKDLENEIKGKGMELNSEVLDIQRAKRASEMASEKEYKKDLESIIKGKGMQAGTDTLEMQHAKKAAEIASEKDYKRDLETEIKGKGMQVSTDTLDVQRAKKASEMASQKQYKKDLENEIKGKGMQVSMDIPDILRAKRTSEIYSQRKYKDEAEKMLSNYSTIADTPEIQRIKTTQQNISAVFYKKEVGAGTAVKDSPEIERVKKNQQNISSVKYKEEIKHATAISDPPELKRVKENQKNISNLQYKEQNYKATPVSMTPEIERVRRNQEQLSAVKYKGELQRGTAISDPPELKRAKENQKNISNVYYRGQLGRATTLSVTPEMERVKKNQENISSVKYTQDHKQMKGRPSLILDTPAMRHVKEAQNHISMVKYHEDFEKTKGRGFTPVVDDPVTERVRKNTQVVSDAAYKGVHPHIVEMDRRPGIIVDLKVWRTDPGSIFDLDPLEDNIQSRSLHMLSEKASHYRRHWSRSHSSSTFGTGLGDDRSEISEIYPSFSCCSEVTRPSDEGAPVLPGAYQQSHSQGYGYMHQTSVSSMRSMQHSPNLRTYRAMYDYSAQDEDEVSFRDGDYIVNVQPIDDGWMYGTVQRTGRTGMLPANYIEFVN
# B7: Low-density lipoprotein receptor class A domain-containing protein 1 (Homo sapiens), Q5T700 (parent)
# chain: MNKVFPQGENGYTAAESKAHPGGEAGGGHLCCSRRGACLSASLLLLLATVAALIALVTILGLPSCTPGAQACITLTNRTGFLCHDQRSCIPASGVCDGVRTCTHGEDEDESLCRDVPQSLPHFLVAHCGDPASWIYSDQKCDGTNNCGDCSDELSPVTVCPPCGPGWWRCPSTFFKYCDCIPRHLCRDHVQHCSDWSDEYACPGP
# Variants of: B1
# Details: with KIAA0408, Q6ZU52
# KIAA0408, Q6ZU52, sequence (Q6ZU52 whole entry): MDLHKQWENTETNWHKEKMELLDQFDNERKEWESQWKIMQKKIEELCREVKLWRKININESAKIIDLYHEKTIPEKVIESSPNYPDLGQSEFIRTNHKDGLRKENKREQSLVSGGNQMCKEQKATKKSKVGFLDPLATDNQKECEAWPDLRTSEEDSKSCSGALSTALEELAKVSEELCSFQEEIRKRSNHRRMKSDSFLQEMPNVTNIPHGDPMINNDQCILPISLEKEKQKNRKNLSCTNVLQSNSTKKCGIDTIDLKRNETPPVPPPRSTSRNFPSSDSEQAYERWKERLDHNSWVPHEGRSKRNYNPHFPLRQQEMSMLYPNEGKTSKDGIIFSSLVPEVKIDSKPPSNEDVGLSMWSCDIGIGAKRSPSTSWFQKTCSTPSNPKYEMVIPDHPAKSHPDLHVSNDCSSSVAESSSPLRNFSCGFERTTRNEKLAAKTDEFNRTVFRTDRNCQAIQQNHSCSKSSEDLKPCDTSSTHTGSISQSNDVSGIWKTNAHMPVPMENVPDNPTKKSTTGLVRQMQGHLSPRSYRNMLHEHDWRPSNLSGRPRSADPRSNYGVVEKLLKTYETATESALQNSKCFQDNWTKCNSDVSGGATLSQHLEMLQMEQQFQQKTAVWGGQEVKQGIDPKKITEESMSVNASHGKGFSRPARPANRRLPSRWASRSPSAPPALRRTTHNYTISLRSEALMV
row,effect of a mutation on the interaction,Variant
1,with no effect,S12N

# Variants of: B2
# Details: with pls4_human PLSCR4, Q9NRQ2
row,effect of a mutation on the interaction,Variant
1,with no effect,R74Q
2,with no effect,A115T

# Variants of: B3
# Details: with kr101_human KRTAP10-1, P60331
# kr101_human KRTAP10-1, P60331, sequence (P60331 whole entry): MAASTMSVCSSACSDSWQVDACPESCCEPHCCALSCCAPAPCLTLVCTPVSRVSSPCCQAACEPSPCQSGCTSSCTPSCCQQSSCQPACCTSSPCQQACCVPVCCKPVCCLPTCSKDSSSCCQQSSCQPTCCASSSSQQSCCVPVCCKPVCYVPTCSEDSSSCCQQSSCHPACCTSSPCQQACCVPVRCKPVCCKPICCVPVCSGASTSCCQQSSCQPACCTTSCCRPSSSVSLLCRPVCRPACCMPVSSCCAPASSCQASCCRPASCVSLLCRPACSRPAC
row,effect of a mutation on the interaction,Variant
1,with no effect,S207Y

# Variants of: B3
# Details: with mdfi_human MDFI
row,effect of a mutation on the interaction,Variant
1,with no effect,S207Y

# Variants of: B4
# Details: with goga2_human GOLGA2, Q08379
row,effect of a mutation on the interaction,Variant
1,with no effect,P65L

# Variants of: B5
# Details: with clc7a_human CLEC7A
row,effect of a mutation on the interaction,Variant
1,with no effect,V322I

# Variants of: B6
# Details: with traf2_human TRAF2, Q12933
# traf2_human TRAF2, Q12933, sequence (Q12933 whole entry): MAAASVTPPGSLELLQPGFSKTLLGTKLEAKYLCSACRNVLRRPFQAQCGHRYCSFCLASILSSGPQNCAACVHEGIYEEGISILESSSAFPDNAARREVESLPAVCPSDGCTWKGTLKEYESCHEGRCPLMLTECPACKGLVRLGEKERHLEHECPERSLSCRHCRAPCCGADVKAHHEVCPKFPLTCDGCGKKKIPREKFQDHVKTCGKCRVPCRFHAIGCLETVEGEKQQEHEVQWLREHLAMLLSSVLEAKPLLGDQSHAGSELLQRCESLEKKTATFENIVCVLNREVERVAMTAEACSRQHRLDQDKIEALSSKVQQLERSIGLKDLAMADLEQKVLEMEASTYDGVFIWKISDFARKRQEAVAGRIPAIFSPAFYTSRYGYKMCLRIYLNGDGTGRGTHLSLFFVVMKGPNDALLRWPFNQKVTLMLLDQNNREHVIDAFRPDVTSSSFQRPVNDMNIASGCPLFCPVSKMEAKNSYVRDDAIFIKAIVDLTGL
row,effect of a mutation on the interaction,Variant
1,with no effect,M351V
2,with no effect,R613Q

# Variants of: B6
# Details: with cc136_human CCDC136, Q96JN2
# cc136_human CCDC136, Q96JN2, sequence (Q96JN2 whole entry): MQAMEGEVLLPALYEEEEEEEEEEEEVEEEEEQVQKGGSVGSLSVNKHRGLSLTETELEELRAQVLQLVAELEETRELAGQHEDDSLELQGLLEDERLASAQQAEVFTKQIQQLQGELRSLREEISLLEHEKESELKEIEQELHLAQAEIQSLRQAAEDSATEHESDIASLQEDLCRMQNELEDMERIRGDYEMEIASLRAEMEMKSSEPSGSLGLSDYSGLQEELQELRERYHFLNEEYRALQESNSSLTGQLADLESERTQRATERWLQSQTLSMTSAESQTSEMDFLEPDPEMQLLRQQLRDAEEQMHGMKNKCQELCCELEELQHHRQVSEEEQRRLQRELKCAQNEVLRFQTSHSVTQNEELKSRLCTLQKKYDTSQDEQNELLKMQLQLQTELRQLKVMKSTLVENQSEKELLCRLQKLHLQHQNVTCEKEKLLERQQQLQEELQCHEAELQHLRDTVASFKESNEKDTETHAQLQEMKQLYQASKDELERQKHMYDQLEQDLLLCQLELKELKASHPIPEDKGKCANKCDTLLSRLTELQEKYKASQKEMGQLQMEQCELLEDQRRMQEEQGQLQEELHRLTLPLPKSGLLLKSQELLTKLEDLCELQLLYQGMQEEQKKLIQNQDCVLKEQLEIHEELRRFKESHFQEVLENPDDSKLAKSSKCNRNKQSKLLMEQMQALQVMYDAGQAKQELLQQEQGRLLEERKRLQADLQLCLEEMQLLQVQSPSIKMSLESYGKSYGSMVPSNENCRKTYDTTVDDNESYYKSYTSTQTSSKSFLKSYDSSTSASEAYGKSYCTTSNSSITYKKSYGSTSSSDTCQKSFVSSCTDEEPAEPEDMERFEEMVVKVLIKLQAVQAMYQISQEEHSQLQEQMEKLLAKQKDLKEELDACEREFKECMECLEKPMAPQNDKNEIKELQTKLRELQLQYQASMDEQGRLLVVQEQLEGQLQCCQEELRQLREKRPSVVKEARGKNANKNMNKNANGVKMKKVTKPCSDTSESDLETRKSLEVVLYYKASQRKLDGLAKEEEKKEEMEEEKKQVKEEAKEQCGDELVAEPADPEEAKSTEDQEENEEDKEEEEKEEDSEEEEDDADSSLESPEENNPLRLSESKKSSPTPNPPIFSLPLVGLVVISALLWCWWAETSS
row,effect of a mutation on the interaction,Variant
1,with no effect,M351V
2,with no effect,R613Q

# Variants of: B6
# Details: with traf1_human TRAF1, Q13077
# traf1_human TRAF1, Q13077, sequence (Q13077 whole entry): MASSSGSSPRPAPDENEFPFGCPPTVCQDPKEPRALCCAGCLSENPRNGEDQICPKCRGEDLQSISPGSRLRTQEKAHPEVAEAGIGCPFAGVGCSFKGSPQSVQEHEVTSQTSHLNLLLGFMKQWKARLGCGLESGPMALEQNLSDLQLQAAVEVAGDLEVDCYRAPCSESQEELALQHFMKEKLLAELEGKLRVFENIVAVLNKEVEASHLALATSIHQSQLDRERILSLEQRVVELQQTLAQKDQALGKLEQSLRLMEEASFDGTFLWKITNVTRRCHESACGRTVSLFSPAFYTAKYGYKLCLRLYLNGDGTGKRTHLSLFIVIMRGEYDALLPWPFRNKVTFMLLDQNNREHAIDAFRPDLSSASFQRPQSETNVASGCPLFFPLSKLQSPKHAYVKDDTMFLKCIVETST
row,effect of a mutation on the interaction,Variant
1,with no effect,M351V
2,with no effect,R613Q

# Variants of: B7
# Details: with bni3l_human BNIP3L
row,effect of a mutation on the interaction,Variant
1,with no effect,G105S
2,with no effect,E108K

# Variants of: B7
# Details: with tm147_human TMEM147, Q9BVK8
# tm147_human TMEM147, Q9BVK8, sequence (Q9BVK8 whole entry): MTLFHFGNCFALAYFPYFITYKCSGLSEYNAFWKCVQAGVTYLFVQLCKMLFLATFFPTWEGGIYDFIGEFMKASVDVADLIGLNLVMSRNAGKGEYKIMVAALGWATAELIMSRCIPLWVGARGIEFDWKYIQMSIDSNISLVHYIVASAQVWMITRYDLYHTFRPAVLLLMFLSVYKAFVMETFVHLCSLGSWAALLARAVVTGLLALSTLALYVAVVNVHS
row,effect of a mutation on the interaction,Variant
1,with no effect,G105S
2,with no effect,E108K

# Variants of: B7
# Details: with mal_human MAL
row,effect of a mutation on the interaction,Variant
1,with no effect,G105S
2,with no effect,E108K

# Variants of: B7
# Details: with mall_human MALL
row,effect of a mutation on the interaction,Variant
1,with no effect,S42F

# Variants of: B7
# Details: with olfm4_human OLFM4, Q6UX06
# olfm4_human OLFM4, Q6UX06, sequence (Q6UX06 whole entry): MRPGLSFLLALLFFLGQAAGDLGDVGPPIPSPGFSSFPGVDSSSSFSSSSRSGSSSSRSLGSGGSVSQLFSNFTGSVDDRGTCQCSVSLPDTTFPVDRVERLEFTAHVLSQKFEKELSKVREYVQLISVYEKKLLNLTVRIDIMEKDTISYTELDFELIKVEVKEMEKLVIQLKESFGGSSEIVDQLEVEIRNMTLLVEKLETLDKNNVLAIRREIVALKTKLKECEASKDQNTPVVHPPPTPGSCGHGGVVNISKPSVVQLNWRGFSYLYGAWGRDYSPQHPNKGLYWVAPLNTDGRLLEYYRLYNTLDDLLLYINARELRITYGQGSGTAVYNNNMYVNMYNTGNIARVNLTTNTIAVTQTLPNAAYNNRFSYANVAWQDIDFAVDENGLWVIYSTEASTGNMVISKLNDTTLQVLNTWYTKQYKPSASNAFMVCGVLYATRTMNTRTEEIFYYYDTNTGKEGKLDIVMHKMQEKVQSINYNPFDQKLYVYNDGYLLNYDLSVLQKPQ
row,effect of a mutation on the interaction,Variant
1,with no effect,S42F

# Variants of: B7
# Details: with tm190_human TMEM190, Q8WZ59
# tm190_human TMEM190, Q8WZ59, sequence (Q8WZ59 whole entry): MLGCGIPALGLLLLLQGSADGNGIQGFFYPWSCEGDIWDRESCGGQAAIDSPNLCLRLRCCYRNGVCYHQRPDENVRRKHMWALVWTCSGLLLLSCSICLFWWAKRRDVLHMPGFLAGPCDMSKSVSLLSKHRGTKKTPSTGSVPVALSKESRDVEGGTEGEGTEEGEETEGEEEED
row,effect of a mutation on the interaction,Variant
1,with no effect,E108K

# Variants of: B7
# Details: with tm218_human TMEM218, A2RU14
# tm218_human TMEM218, A2RU14, sequence (A2RU14 whole entry): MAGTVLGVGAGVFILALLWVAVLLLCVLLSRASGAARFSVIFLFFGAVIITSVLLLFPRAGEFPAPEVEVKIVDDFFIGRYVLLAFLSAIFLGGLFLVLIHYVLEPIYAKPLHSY
row,effect of a mutation on the interaction,Variant
1,with no effect,E108K
